Data reported in patent US20220177587A1, “METHODS AND USES OF VARIANT CD80 FUSION PROTEINS AND RELATED CONSTRUCTS” (Alpine Immune Sciences, Inc., priority 2018, published 2022).
Like-named read-outs stand apart in the source and are kept apart here.

Experiments:
CD28 [1] = target: T1, CD28 (Homo sapiens, UniProt P10747); assay: Jurkat/IL2 + CHO/OKT3 +/- PD-L1 reporter assay: PD-L1-dependent CD28 costimulation; format: cell-based; parameters: host or cells: Jurkat cells expressing an IL-2-luciferase reporter; details: Table E22, Jurkat/IL2 + CHO/OKT3/PD-L1; for Fold Increase over WT CD80-IgV-Fe: 5.0 nM
Description: Jurkat cells were then plated at 50 μL/well for a total of 100,000 cells per well.
To each well, 25 μL of test protein was added to the Jurkat cells. […] The Jurkat cells with test or control proteins were incubated for 15 minutes at room temperature. CHO-derived artificial antigen presenting cells (aAPC) displaying transduced cell surface anti-CD3 single chain Fv (OKT3) (i.e., no PD-L1), or OKT3 and PD-L1 (i.e., +PD-L1), were brought to 0.8×10^6 cells/mL, and 25 μL of cells were added to each well, bringing the final volume of each well to 100 μL. […] Jurkat cells and CHO cells were incubated for 5 hours at 37 degrees Celsius in a humidified 5% CO2 incubation chamber. Plates were then removed from the incubator and acclimated to room temperature for 15 minutes. 100 μL of a cell lysis and luciferase substrate solution (BioGlo luciferase reagent, Promega) were added to each well and the plates were incubated on an orbital shaker for 10 minutes. Luminescence was measured with a 1 second per well integration time using a BioTek Cytation luminometer, and a relative luminescence value (RLU) was determined for each test sample.

huCTLA4 = huCTLA4 (Homo sapiens, UniProt P16410); assay: Flow binding to CHO cells stably expressing CTLA4; parameters: huCTLA4 and huPD-L1, full-length mammalian surface expression constructs were generated; expressed in transfected cells; host or cells: CHO cells, lentiviral transduction, sorted to >98% purity; details: for CTLA4 MFI at 33.3 nM: CHO cells stably expressing CTLA4; for CTLA4 Fold change to WT CD80: MFI at 33.3 nM relative to CD80 WT IgV-Fc
Description: (§1) Binding of selected immunomodulatory fusion proteins to cognate binding partners was assessed. […] Cells were sorted in a Bio-Rad S3 Cell Sorter (Bio-Rad Corp., USA) to >98% purity. Jurkat/IL2 reporter cells, which endogenously express CD28, were used to detect binding to CD28.
(§2) For staining and analysis by flow cytometry, 100,000 cells of appropriate transfected cells were plated in 96-well round bottom plates. Cells were spun down and resuspended in staining buffer (phosphate buffered saline (PBS), 1% bovine serum albumin (BSA), and 0.1% sodium azide) for 20 minutes to block non-specific binding. […] Primary staining was performed on ice for 45 minutes, before washing cells in staining buffer twice. Phycoerythrin (PE)-conjugated anti-human Fc (Jackson ImmunoResearch, USA) was diluted 1:150, added to cells and incubated another 30 minutes on ice. Cells were then washed twice with 150 μL/well stain buffer, fixed in 2% formaldehyde/PBS, and analyzed on Intellicyt flow cytometer (Intellicyt Corp., USA). PE Mean Fluorescence Intensity (MFI) was calculated for each cell type with FlowJo Version 10 software (FlowJo LLC, USA).
(§3) Binding assays were carried out to assess the specificity and affinity of multivalent proteins to cell-expressed CTLA-4, CD28, and PD-L1 counter structures.
(§4) The EC50 for binding also was determined.

huPD-L1 = huPD-L1 (Homo sapiens, UniProt Q9NZQ7); assay: Flow binding to CHO cells stably expressing PD-L1; parameters: huCTLA4 and huPD-L1, full-length mammalian surface expression constructs were generated; expressed in transfected cells; host or cells: CHO cells, lentiviral transduction, sorted to >98% purity; details: for PD-L1 Fold change to WT CD80: MFI at 33.3 nM relative to CD80 WT IgV-Fc; for Ratio of PDL1:CD28: ratio of MFI at 33.3 nM
Description: as §1, §2, §3, §4

CD28 [2] = target: T1, CD28; assay: Flow binding to Jurkat/IL2 reporter cells (CD28); parameters: host or cells: Jurkat cells expressing an IL-2-luciferase reporter; details: for CD28 Fold change to WT CD80: MFI at 33.3 nM relative to CD80 WT IgV-Fc
Description: as §1, §2, §3, §4

[3] = Table E20, CHO cells stably expressing PD-L1, 33.3 nM
[4] = Table E20, Jurkats (CD28), 33.3 nM
[5] = Table E10, 33.3 nM, CHO cells stably expressing PD-L1
[6] = Table E10, 33.3 nM, Jurkats (CD28)
[7] = Table E23, CD80 IgV-Fc (inert) at 33.3 nM
[8] = Table E19, CHO cells stably expressing PD-L1, 33.3 nM
[9] = Table E23, CD80 IgV-Fc (inert) at 33.3 nM, CHO cells stably expressing PD-L1
[10] = Table E23, CD80 IgV-Fc (inert) at 33.3 nM, Jurkat (CD28)
[11] = Table E25, linker variants, 33.3 nM, CHO cells stably expressing PD-L1
[12] = Table E25, linker variants, 33.3 nM, Jurkats (CD28)

Sequence of huCTLA4 (P16410 36-223): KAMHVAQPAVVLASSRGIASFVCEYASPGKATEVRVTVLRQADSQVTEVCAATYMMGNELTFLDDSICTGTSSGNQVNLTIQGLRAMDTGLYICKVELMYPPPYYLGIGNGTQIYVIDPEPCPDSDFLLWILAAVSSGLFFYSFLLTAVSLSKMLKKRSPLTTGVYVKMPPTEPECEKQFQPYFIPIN
Sequence of huPD-L1 (Q9NZQ7 19-290): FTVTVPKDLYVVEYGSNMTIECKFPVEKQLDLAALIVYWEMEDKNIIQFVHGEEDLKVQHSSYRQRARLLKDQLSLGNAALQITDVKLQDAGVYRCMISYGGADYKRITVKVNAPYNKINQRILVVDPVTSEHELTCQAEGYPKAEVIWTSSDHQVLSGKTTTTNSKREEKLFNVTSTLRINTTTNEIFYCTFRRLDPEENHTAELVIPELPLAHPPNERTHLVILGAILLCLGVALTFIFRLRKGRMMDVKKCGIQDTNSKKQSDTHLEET

Row | Relative Luciferase Units (RLU), CD80 Conc 5.0 nM (CD28 [1]) [RLU] | CTLA4 MFI at 33.3 nM (huCTLA4; Table E20, 33.3 nM) | PD-L1 MFI at 33.3 nM (huPD-L1; [3]) | CD28 MFI at 33.3 nM (CD28 [2]; [4]) | Substance | other results
1 | 1015 |  |  |  | H18Y/A26E/E35D/M47L/A71G/D90G | 
2 | 940 | 23386 | 28683 | 1757 | H18Y/A26E/E35D/V68M/A71G/D90G | Fold Increase over WT CD80-IgV-Fe (CD28 [1]): 2.41 fold; CTLA4 Fold change to WT CD80 (huCTLA4; Table E20): 17.2 fold; PD-L1 Fold change to WT CD80 (huPD-L1; Table E20): 657.9 fold; Ratio of PDL1:CD28 (huPD-L1; Table E20): 16.3; CD28 Fold change to WT CD80 (CD28 [2]; Table E20): 40.0 fold
3 | 852 |  | 27410 | 3389 | H18Y/E35D/M47L/V68M/D90G | 
4 | 851 | 22983 | 13327 |  | H18Y/E35D/M47L/A71G/D90G | 
5 | 815 | 24335 |  | 2724 | H18Y/E35D/V68M/A71G/D90G | 
6 |  | 21807 | 28139 |  | A26E/M47L/V68M/A71G/D90G | 
7 | 895 | 20015 | 24683 |  | H18Y/A26E/E35D/M47L/V68M | 
8 | 1010 | 24587 | 27806 |  | A26E/E35D/M47L/V68M/A71G | 

Second part, the substance before the results:

Row | Substance | Relative Luciferase Units (RLU), CD80 Conc 5.0 nM (CD28 [1]) [RLU] | CTLA4 MFI at 33.3 nM (huCTLA4; Table E20, 33.3 nM) | PD-L1 MFI at 33.3 nM (huPD-L1; [3]) | CD28 MFI at 33.3 nM (CD28 [2]; [4]) | other results
9 | H18Y/A26E/M47L/V68M/A71G/D90G | 853 | 121 | 31716 | 2556 | Fold Increase over WT CD80-IgV-Fe (CD28 [1]): 2.19 fold; CTLA4 Fold change to WT CD80 (huCTLA4; Table E20): 0.1 fold; PD-L1 Fold change to WT CD80 (huPD-L1; Table E20): 727.4 fold; Ratio of PDL1:CD28 (huPD-L1; Table E20): 12.4; CD28 Fold change to WT CD80 (CD28 [2]; Table E20): 58.2 fold
10 | WT CD80 ECD-Fc H22.6 |  |  |  |  | PD-L1 MFI at 33.3 nM (huPD-L1; [5]): 46.3; CD28 MFI at 33.3 nM (CD28 [2]; [6]): 43
11 | Fc Control |  | 37.9 | 77.1 | 15.4 | CTLA4 MFI at 33.3 nM (huCTLA4; Table E19, 33.3 nM): 52; CTLA4 MFI at 33.3 nM (huCTLA4; [7]): 194; PD-L1 MFI at 33.3 nM (huPD-L1; [8]): 44; PD-L1 MFI at 33.3 nM (huPD-L1; [9]): 185; CD28 MFI at 33.3 nM (CD28 [2]; [10]): 81
12 | A26E/E35D/M47L/A71G/D90G | 1132 | 22127 | 14550 |  | 
13 | H18Y/E35D/M47L/V68M/A71G/D90G | 1028 | 19892 | 29944 |  | 
14 | CD80 (E88D/K89R/D90K/A91G/F92Y/K93R) ECD-Fc: variant full CD80 ECD fused to effector human IgG1 Fc (SEQ ID NO:1527) |  |  |  |  | Jurkat/CD28 MFI at 66.7 nM (CD28 [2]; 66.7 nM): 4049; EC50 (CD28 [2]; flow binding, read-out: Jurkat/CD28 EC50): > 0.2 µM
15 | H18Y/A26E/M47L/A71G/D90G | 1036 | 25420 |  | 2047 | 
16 | H18V/A26R/E35D/M47L/V68M/A71G/D90G |  |  |  |  | CTLA4 MFI at 33.3 nM (huCTLA4; [7]): 23151; PD-L1 MFI at 33.3 nM (huPD-L1; [9]): 73166; CD28 MFI at 33.3 nM (CD28 [2]; [10]): 9620
17 | WT CD80 ECD-Fc (Abcam) |  |  |  |  | PD-L1 MFI at 33.3 nM (huPD-L1; [8]): 128; CD28 MFI at 33.3 nM (CD28 [2]; Table E19, Jurkats (CD28), 33.3 nM): 709
18 | WT CD80 ECD-Fc: wild-type CD80 ECD (SEQ ID NO:2)-Fc; R&D Systems where stated [reference compound] |  |  | 6377 | 42.3 | PD-L1 MFI at 33.3 nM (huPD-L1; Table E3, 33.3 nM): 7943; PD-L1 MFI at 33.3 nM (huPD-L1; Table E4, 33.3 nM, CHO cells stably expressing PD-L1): 11871; PD-L1 MFI at 33.3 nM (huPD-L1; Table E11, CHO cells stably expressing PD-L1, 33.3 nM): 52; PD-L1 MFI at 33.3 nM (huPD-L1; Table E14, CHO cells stably expressing PD-L1, 33.3 nM): 68; PD-L1 MFI at 33.3 nM (huPD-L1; Table E16, consensus variants, CHO cells stably expressing PD-L1, 33.3 nM): 58; PD-L1 MFI at 33.3 nM (huPD-L1; [11]): 35; EC50 (huPD-L1; Table E31, flow binding to CHO cells stably expressing PD-L1): 0.0312 µM; CD28 MFI at 33.3 nM (CD28 [2]; Table E3, 33.3 nM): 7627; CD28 MFI at 33.3 nM (CD28 [2]; Table E4, 33.3 nM, Jurkat cells (CD28)): 18035; CD28 MFI at 33.3 nM (CD28 [2]; Table E11, Jurkats (CD28), 33.3 nM): 31; CD28 MFI at 33.3 nM (CD28 [2]; Table E14, Jurkats (CD28), 33.3 nM): 30; CD28 MFI at 33.3 nM (CD28 [2]; Table E16, consensus variants, Jurkats (CD28), 33.3 nM): 46; CD28 MFI at 33.3 nM (CD28 [2]; [12]): 37; EC50 (CD28 [2]; Table E31, flow binding to Jurkats (CD28), read-out: CD28 EC50): 0.164 µM
19 | H18Y/A26E/E35D/M47L/V68M/A71G | 976 | 25404 | 28546 |  | 
20 | H18Y/M47L/V68M/A71G/D90G | 986 | 22235 |  |  | 
21 | Inert Fc (control) |  |  |  |  | CTLA4 MFI at 33.3 nM (huCTLA4; Table E25, linker variants, 33.3 nM): 40; PD-L1 MFI at 33.3 nM (huPD-L1; [11]): 58; CD28 MFI at 33.3 nM (CD28 [2]; [12]): 20
22 | Inert Fc |  |  |  |  | CTLA4 MFI at 33.3 nM (huCTLA4; Table E10, 33.3 nM): 65.7; PD-L1 MFI at 33.3 nM (huPD-L1; [5]): 41; CD28 MFI at 33.3 nM (CD28 [2]; [6]): 23
23 | H18Y/A26N/E35D/M47F/V68M/A71G/D90G |  |  |  |  | PD-L1 MFI at 33.3 nM (huPD-L1; [9]): 26510; CD28 MFI at 33.3 nM (CD28 [2]; [10]): 82.2
24 | H18Y/A26E/M47L/V68M/A71G |  | 21742 | 29730 | 544 | 
25 | E35D/M47L/V68M/A71G/D90G |  | 26007 | 29377 | 3072 | 
26 | A26E/E35D/M47L/V68M/D90G |  | 26698 |  |  | 
27 | CD80 WT ECD-Fc |  |  |  |  | PD-L1 MFI at 33.3 nM (huPD-L1; [9]): 161; CD28 MFI at 33.3 nM (CD28 [2]; [10]): 57.8
